Among the data in paper PMC3973321 (Nucleic Acids Research, 2014) are Kd and dH values, retold here.

For this assay, the target named is mitochondrial RNA polymerase (POLRMT), residues 42-1230 (human, UniProt O00411 42-1230). The assay can be described thus: ITC. On the technique in general: Isothermal titration calorimetry measures the heat released or taken up as one component is titrated into another.
Chain of mitochondrial RNA polymerase (POLRMT), residues 42-1230 (O00411 42-1230): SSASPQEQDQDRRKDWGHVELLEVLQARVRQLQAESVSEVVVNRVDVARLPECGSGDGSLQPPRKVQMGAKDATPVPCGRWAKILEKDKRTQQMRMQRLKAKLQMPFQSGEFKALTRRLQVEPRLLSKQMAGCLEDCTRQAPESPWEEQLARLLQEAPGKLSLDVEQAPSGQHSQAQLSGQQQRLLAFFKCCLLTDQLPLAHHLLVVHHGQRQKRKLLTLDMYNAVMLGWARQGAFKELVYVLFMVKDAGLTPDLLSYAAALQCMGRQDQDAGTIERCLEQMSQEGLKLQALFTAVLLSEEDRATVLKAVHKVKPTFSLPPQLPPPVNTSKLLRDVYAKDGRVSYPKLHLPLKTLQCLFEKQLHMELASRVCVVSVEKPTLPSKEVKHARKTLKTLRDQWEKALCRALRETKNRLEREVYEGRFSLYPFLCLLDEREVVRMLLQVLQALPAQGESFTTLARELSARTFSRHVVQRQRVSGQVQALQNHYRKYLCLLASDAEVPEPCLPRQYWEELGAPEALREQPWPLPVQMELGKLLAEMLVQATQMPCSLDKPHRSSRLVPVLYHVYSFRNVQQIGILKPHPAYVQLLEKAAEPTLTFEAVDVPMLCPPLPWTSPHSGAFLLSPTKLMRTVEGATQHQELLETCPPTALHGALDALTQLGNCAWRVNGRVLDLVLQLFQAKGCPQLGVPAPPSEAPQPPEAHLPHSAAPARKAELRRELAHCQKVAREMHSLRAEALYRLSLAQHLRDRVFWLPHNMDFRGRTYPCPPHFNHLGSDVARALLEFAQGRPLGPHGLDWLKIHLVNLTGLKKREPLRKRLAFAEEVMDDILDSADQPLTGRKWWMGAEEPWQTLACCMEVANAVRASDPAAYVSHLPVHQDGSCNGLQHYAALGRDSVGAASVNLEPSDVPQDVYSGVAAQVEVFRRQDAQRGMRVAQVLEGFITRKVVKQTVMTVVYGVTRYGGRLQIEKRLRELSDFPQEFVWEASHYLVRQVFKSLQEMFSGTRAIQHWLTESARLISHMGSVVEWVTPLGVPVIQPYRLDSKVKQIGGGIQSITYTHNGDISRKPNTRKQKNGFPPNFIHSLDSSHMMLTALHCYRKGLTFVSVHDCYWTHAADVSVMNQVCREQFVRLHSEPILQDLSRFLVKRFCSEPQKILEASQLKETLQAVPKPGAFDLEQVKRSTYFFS

B1: TFAM, residues 43-246 (natural protein)
chain: SSVLASCPKKPVSSYLRFSKEQLPIFKAQNPDAKTTELIRRIAQRWRELPDSKKKIYQDAYRAEWQVYKEEISRFKEQLTPSQIMSLEKEIMDKHLKRKAMTKKKELTLLGKPKRPRSAYNVYVAERFQEAKGDSPQEKLKTVKENWKNLSDSEKELYIQHAKEDETRYHNEMKSWEEQMIEVGRKDLLRRTIKKQRKYGAEEC
With B1, binding was characterised by a dissociation constant (Kd) of 4.6 µM and the dH came out at 11.1 kcal/mol.
